T1: MKK6(h) (human, UniProt P52564 1-334, limits assumed)
T1 sequence (looked up): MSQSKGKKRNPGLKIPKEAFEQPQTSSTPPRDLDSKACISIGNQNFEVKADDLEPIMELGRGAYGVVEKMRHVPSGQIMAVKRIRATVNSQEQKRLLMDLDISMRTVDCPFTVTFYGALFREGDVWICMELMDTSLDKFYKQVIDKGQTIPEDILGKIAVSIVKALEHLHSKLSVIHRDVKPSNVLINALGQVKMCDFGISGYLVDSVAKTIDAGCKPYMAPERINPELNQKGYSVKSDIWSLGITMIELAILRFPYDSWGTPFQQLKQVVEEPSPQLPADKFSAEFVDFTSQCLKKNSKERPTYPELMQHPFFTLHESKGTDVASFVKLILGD

T2: EphA4(h) (human, UniProt P54764 570-986, limits assumed)
T2 sequence (looked up): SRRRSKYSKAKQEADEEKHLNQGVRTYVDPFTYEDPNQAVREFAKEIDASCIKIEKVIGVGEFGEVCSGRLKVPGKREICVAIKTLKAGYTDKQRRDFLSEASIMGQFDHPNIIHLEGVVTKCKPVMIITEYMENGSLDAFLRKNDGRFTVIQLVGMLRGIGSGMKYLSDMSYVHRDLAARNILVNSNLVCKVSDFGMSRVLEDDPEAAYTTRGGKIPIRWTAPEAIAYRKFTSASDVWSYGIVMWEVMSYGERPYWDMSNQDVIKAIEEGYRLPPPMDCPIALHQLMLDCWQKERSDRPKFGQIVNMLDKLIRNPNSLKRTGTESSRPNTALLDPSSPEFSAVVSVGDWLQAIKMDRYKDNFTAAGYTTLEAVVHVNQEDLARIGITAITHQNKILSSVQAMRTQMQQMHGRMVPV

T3: NEK11(h) (human, UniProt Q8NG66 1-645, limits assumed)
T3 sequence (looked up): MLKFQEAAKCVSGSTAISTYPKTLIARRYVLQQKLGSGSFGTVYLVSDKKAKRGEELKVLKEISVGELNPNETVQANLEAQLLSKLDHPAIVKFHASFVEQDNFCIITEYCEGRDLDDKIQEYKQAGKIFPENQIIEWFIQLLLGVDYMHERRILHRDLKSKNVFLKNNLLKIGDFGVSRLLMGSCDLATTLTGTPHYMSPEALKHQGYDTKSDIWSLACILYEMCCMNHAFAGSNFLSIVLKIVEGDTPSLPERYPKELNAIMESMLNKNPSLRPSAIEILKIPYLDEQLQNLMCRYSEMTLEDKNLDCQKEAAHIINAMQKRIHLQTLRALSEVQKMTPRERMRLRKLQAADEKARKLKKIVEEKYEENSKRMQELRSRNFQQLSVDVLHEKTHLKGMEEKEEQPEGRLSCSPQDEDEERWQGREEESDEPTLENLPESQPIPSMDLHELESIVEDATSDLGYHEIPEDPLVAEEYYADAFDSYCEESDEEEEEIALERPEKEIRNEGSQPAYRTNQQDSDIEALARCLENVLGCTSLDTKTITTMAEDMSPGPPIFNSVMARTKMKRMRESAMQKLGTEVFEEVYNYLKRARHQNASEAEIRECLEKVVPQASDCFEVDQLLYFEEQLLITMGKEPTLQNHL

T4: PhKγ2(h) (human, UniProt P15735 1-406, limits assumed)
T4 sequence (looked up): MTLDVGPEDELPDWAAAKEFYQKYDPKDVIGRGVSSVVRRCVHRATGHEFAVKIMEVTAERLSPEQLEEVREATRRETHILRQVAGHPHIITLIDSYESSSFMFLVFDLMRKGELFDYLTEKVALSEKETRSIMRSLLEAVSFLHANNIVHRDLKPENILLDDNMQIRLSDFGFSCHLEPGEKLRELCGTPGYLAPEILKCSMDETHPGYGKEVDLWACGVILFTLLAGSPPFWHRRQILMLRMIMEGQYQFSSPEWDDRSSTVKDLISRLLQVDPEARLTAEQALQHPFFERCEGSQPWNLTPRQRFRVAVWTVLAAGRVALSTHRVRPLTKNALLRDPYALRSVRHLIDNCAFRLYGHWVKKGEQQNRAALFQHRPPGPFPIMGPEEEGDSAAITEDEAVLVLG


Legend:
Assay in all cases: cell-based or functional assay
[1] = biological target: Pyk2(h) (human, UniProt Q14289 1-1009, limits assumed)
[2] = biological target: T1, MKK6(h)
[3] = biological target: BTK(h) (human, UniProt Q06187 1-659)
[4] = biological target: AMPKa1(h) (human, UniProt Q13131 1-559, limits assumed)
[5] = biological target: cKit(D816H)(h) (human, UniProt P10721 544-976, limits assumed)
[6] = biological target: T2, EphA4(h)
[7] = biological target: CDK2/cyclinE(h) (human, UniProt P24941 1-298; P24941 1-298)
[8] = biological target: Hck(h) activated (human, UniProt P08631 251-518, limits assumed)
[9] = biological target: SAPK2b(h) (human, UniProt Q15759 1-364)
[10] = biological target: Met(Y1248H)(h) (human, UniProt P08581-2 974-1408, limits assumed)
[11] = biological target: Plk3(h) (human, UniProt Q9H4B4 1-646, limits assumed)
[12] = biological target: T3, NEK11(h)
[13] = biological target: FAK(h) (human, UniProt Q05397 1-1052, limits assumed)
[14] = biological target: CHK2(h) (human, UniProt O96017 5-543, limits assumed)
[15] = biological target: T4, PhKγ2(h)
[16] = biological target: Met(M1268T)(h) (human, UniProt P08581-2 974-1408, limits assumed)
[17] = biological target: CHK2(R145W)(h) (human, UniProt O96017 5-543, limits assumed)
Also: test concentration or dose not given here.

Chain of AMPKa1(h) (Q13131 whole entry): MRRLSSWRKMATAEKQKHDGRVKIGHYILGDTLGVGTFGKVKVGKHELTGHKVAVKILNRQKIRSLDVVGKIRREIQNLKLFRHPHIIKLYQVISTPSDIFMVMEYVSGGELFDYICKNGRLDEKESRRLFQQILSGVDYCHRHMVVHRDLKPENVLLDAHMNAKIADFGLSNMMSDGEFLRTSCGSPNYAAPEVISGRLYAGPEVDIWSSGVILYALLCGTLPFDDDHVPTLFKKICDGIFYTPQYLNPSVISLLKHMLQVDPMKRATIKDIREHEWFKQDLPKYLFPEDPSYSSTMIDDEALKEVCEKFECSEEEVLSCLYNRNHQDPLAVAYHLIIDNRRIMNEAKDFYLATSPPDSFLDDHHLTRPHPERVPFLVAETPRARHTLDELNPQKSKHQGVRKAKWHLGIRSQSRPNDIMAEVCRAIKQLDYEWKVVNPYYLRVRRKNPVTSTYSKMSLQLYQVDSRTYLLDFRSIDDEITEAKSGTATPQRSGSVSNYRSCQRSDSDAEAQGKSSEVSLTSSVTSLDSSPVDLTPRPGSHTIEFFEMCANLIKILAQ
Chain of SAPK2b(h) (Q15759 whole entry): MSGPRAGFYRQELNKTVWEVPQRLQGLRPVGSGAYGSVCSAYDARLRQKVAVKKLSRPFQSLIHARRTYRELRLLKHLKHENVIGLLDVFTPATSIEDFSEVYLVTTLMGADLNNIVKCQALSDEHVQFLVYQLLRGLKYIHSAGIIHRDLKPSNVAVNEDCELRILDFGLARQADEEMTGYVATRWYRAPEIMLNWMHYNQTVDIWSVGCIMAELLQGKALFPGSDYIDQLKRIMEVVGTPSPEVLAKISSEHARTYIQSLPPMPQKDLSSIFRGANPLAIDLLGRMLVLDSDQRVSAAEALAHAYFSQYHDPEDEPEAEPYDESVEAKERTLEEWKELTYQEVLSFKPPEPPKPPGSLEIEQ
Chain of CHK2(h) (O96017 5-543 limits assumed): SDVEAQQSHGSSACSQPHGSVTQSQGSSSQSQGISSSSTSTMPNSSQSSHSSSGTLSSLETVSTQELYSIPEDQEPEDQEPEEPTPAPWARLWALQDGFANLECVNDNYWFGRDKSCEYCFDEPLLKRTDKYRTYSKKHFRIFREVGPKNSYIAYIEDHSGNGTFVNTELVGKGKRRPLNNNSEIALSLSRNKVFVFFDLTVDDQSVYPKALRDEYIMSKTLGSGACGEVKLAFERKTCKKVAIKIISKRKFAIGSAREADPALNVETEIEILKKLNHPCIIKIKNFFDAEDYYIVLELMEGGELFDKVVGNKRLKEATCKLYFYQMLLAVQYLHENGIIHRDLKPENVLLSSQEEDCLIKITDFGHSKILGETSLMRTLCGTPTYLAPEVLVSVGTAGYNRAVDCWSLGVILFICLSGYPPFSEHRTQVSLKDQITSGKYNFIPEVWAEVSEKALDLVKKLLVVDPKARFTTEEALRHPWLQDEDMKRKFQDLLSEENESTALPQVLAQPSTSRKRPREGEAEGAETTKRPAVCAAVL
Chain of FAK(h) (Q05397 whole entry): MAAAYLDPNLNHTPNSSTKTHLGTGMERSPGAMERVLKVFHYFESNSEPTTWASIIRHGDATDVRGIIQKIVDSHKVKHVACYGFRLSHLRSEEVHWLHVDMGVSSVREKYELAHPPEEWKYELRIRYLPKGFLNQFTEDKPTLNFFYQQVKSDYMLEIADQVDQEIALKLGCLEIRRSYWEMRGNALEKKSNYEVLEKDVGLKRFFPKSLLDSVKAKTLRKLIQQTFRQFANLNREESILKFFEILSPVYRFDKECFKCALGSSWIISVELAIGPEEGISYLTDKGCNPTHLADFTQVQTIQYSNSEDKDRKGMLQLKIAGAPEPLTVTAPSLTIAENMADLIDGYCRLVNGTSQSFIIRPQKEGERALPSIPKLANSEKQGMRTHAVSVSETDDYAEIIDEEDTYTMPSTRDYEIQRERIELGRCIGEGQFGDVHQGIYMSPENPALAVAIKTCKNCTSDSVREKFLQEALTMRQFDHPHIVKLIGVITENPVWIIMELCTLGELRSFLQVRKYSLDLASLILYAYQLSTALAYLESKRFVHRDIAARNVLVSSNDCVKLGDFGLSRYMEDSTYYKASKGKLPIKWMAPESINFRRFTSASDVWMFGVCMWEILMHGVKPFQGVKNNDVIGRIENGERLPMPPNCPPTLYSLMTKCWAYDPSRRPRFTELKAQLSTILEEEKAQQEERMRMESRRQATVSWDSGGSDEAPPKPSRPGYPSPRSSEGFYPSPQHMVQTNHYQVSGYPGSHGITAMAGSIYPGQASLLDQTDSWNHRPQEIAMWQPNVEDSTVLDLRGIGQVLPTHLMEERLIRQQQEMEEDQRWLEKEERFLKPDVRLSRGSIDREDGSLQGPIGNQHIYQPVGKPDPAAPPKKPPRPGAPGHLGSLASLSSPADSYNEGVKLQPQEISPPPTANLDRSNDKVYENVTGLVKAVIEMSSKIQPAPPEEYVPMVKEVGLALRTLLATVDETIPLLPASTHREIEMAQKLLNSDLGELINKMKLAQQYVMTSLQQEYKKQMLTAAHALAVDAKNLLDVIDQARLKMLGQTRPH
Chain of Plk3(h) (Q9H4B4 whole entry): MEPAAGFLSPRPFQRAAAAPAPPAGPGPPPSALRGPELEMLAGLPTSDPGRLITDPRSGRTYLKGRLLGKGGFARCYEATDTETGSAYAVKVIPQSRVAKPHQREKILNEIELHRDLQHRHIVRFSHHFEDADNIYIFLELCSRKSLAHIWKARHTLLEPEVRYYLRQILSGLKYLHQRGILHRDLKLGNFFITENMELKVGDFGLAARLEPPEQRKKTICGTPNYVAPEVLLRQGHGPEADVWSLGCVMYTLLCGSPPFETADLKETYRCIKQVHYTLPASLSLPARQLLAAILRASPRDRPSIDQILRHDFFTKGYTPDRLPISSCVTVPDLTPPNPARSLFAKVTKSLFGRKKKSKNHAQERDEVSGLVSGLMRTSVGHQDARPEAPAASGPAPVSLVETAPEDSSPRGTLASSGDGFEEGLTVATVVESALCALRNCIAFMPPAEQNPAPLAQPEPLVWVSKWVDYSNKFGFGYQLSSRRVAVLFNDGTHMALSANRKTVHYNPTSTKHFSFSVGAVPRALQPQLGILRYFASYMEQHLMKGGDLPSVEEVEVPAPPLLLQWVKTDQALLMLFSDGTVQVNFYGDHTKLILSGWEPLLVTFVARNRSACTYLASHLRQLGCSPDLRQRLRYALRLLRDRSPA
Chain of CHK2(R145W)(h) (O96017 5-543 R145W limits assumed): as the sequence (O96017 5-543 limits assumed) above, with R141W counted along it
Chain of cKit(D816H)(h) (P10721 544-976 D816H limits assumed): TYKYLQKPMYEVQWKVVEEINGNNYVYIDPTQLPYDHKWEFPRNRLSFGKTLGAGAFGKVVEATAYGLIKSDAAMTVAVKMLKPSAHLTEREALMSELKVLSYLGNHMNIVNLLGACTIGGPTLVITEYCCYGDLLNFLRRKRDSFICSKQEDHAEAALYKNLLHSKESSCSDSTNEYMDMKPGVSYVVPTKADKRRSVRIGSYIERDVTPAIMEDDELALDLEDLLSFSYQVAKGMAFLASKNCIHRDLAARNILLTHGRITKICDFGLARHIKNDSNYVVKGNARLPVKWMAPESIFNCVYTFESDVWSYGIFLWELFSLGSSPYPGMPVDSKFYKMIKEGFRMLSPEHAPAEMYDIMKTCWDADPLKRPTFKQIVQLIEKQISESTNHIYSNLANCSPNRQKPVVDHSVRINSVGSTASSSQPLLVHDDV
Chain of BTK(h) (Q06187 whole entry): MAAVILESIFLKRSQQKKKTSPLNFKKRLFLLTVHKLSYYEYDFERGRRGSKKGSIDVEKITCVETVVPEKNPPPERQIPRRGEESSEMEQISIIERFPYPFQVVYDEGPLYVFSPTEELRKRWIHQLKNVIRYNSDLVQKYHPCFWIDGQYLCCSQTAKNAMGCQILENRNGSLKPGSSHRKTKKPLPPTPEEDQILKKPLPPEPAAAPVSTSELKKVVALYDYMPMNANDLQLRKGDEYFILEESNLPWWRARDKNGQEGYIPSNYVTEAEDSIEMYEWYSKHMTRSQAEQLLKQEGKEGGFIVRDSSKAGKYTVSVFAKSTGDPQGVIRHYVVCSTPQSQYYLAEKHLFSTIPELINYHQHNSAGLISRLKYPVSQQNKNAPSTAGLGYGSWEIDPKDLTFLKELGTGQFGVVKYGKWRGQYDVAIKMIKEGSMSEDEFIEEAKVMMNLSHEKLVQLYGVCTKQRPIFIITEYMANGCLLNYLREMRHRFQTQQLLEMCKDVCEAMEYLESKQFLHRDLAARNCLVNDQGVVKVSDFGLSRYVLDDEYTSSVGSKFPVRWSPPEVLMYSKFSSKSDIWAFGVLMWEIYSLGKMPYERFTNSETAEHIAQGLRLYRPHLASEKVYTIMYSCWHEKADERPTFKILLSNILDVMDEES
Chain of Hck(h) activated (P08631 251-518 limits assumed): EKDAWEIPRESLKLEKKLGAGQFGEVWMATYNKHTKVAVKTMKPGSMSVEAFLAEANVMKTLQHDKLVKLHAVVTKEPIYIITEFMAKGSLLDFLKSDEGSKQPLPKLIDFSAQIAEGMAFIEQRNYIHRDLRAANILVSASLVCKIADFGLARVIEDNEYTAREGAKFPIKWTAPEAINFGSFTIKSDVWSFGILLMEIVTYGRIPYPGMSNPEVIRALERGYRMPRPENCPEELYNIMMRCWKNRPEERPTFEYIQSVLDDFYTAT

Binder	% activity [1] [%]	% activity [2] [%]	% activity [3] [%]	% activity [4] [%]	% activity [5] [%]	% activity [6] [%]	% activity [7] [%]	% activity [8] [%]	% activity [9] [%]	% activity [10] [%]	% activity [11] [%]	% activity [12] [%]	% activity [13] [%]	% activity [14] [%]	% activity [15] [%]	% activity [16] [%]	% activity [17] [%]
FAKLAARLYRKALARQLGVAA [MMI-0300]	47	48	102	71	126	88	94	82	81	117	127	53	111	66	46	255	33
KAFAKLAARLYRKALARQLGVAA [MMI-0400]	34	44	94	87	143	65	83	81	82	63	129	33	96	54	38	265	31
